Results taken from US7803910B2, “Soluble CD164 polypeptides” (Merck Serono S.A., priority 2005, dated 2010).

Legend:
LPS-induced TNFα release = test: LPS-induced TNFalpha release in mice (Example 5); format: in vivo, C3H mice
Procedure: C3H mice (Elevage Janvier) (8 week old), received E. Coli's LPS (O111:B4, Sigma, 0.3 mg/kg, ip) 15 minutes after the administration of the test molecules. LPS was solubilized in sterile saline. Dexamethasone (0.1 mg/kg, sc) was used as reference. 24 h later, the animals were sacrificed and the blood was sampled. Plasma levels of TNF-αwere determined in serum using an ELISA kit (R&D). Statistical analysis was determined with an ANOVA test followed by a post-test of Dunnett.

female mice (Balb/c) = test: Dextran Sodium Sulfate-induced ulcerative colitis model; format: in vivo
Procedure: The DSS model of colitis mimics some aspects of the human affection such as macrophage infiltration and up regulation of inflammatory cytokines (i.e. TNFα, IL-1p, IL-6) in the colon mucosa.
Ulcerative colitis (UC) was induced in female mice (Balb/c, 20-22 g, Elevage Janvier) by Dextran Sodium Sulfate (DSS 4%) administered in drinking water (oral route). The mice had free access to DSS during 7 days. Body weight was determined daily. The severity of the UC was assessed by a clinical score estimating the constituency of the stool (0=firm, 1=loose, 2=diarrhea) and the presence of blood (0=no blood, 1=occult blood, 2=gross rectal bleeding). Seven days after the induction of the disease, the animals were sacrificed. The length and the weight of the colon were determined and the ratio Weight/Length/100 g body weight was calculated. The spleen weight was also determined. Blood was sampled to determine serum amyloid protein (SAA) using a specific ELISA.
Test substances or vehicle (PBS/0.02% BSA) was administered at days 3, 4, 5 and 6 after the induction of the UC. Enbrel® (1 mg/kg, sc) was used as reference compound. Three studies were performed as per the following table:
In Study 3, the content of IL-1β in the colon was also measured.

B1: sCD164: SEQ ID NO: 15, mature full-length CD164 extracellular domain (exons 1 to 6), expressed with C-terminal hexa-histidine tag (protein)
chain: DKNTTQHPNVTTLAPISNVTSAPVTSLPLVTTPAPETCEGRNSCVSCFNVSVVNTTCFWIECKDESYCSHNSTVSDCQVGNTTDFCSVSTATPVPTANSTAKPTVQPSPSTTSKTVTTSGTTNNTVTPTSQPVRKSTFDA
modifications: homo sapiens
In the case of B1, the “LPS-induced TNFα release” value (LPS-induced TNFα release; 1 mg/kg iv, 15 minutes prior to LPS, P<0.001) is reported as “significantly decrease” and the “TNFα release after LPS induction” value (LPS-induced TNFα release; previous experiments in this model) is reported as “decrease TNFα release”.

B2: sCD164-Fcm: SEQ ID NO: 18, sCD164 fused to an Fc part mutated in the Fc receptor and C1q binding regions (protein, listed as Homo sapiens)
chain: DKNTTQHPNVTTLAPISNVTSAPVTSLPLVTTPAPETCEGRNSCVSCFNVSVVNTTCFWIECKDESYCSHNSTVSDCQVGNTTDFCSVSTATPVPTANSTAKPTVQPSPSTTSKTVTTSGTTNNTVTPTSQPVRKSTFDAEPKSCDKTHTCPPCPAPEAEGAPSVFLFPPKPKDTLMISRTPEVTCVVVDVSHEDPEVKFNWYVDGVEVHNAKTKPREEQYNSTYRVVSVLTVLHQDWLNGKEYKCKVSNKALPSSIEKTISKAKGQPREPQVYTLPPSREEMTKNQVSLTCLVKGFYPSDIAVEWESNGQPENNYKTTPPVLDSDGSFFLYSKLTVDKSRWQQGNVFSCSVMHEALHNHYTQKSLSLSPGK
With B2 the clinical score (female mice (Balb/c); Study 1, 1 mg/kg, ip, day 6) was −23%, the “increase in serum amyloid protein A” value (female mice (Balb/c); Study 1, 3 mg/kg, ip) was −36% and the splenomegaly (female mice (Balb/c); Study 1, 3 mg/kg, ip) was −27%. The clinical score (female mice (Balb/c); Study 1, 3 mg/kg, ip, day 6) was −32%, the “colon reduction, length” value (female mice (Balb/c); Study 1, 3 mg/kg, ip, days 3-6) was −21% and the body weight loss (female mice (Balb/c); Study 1, 0.3, 1, 3 mg/kg ip) was “not affected”. The “ratio weight/length (colon)” value (female mice (Balb/c); Study 1, 0.3, 1, 3 mg/kg ip) was “not affected”, the “colon reduction, length” value (female mice (Balb/c); Study 2, 0.3 mg/kg, sc) was −13% and the “colon reduction, ratio weight/length” value (female mice (Balb/c); Study 2, 0.3 mg/kg, sc) was −26%. The “colon reduction, length” value (female mice (Balb/c); Study 2, 1 mg/kg, sc) was −18%, the “colon reduction, ratio weight/length” value (female mice (Balb/c); Study 2, 1 mg/kg, sc) was −46% and the body weight loss (female mice (Balb/c); Study 2, 1 mg/kg, sc, day 5 to day 7) was “reduced significantly”. The clinical score (female mice (Balb/c); Study 2, 1 mg/kg, sc, day 6) was −22%, the “increase in serum amyloid protein A” value (female mice (Balb/c); Study 2, 3 mg/kg, sc) was “significantly decreased” and the splenomegaly (female mice (Balb/c); Study 2, 0.3, 1, 3 mg/kg sc) was “not improved”. For the same molecule, the “colon reduction, length” value (female mice (Balb/c); Study 3, 0.3 mg/kg, sc) was −18%, the “colon reduction, ratio weight/length” value (female mice (Balb/c); Study 3, 0.3 mg/kg, sc) was −19% and the body weight loss (female mice (Balb/c); Study 3, 1 mg/kg, sc) was “did not have any effect”. The clinical score (female mice (Balb/c); Study 3, 1 mg/kg, sc) was “tended to improve”, the “colon reduction, length” value (female mice (Balb/c); Study 3, 1 mg/kg, sc) was −26% and the “colon reduction, ratio weight/length” value (female mice (Balb/c); Study 3, 1 mg/kg, sc) was −25%. For the same molecule, the “content of IL-1β in colon” value (female mice (Balb/c); Study 3, 1 mg/kg, sc) was “tended to improve”, the “serum amyloid A protein” value (female mice (Balb/c); Study 3, 1 mg/kg, sc) was “did not have any effect” and the body weight loss (female mice (Balb/c); Study 3, 0.3 and 1 mg/kg, sc) was “did not have any effect”. The clinical score (female mice (Balb/c); Study 3, 0.3 and 1 mg/kg, sc) was “trended to improve”, the “serum amyloid A protein” value (female mice (Balb/c); Study 3, 0.3 and 1 mg/kg, sc) was “did not have any effect” and the splenomegaly (female mice (Balb/c); Study 3, 0.3 and 1 mg/kg, sc) was “trended to improve”. The “content of IL-1β in colon” value (female mice (Balb/c); Study 3, 0.3 and 1 mg/kg, sc (dose of the single value not stated)) was −22%.
